Values belong to the molecule of their own block, whether it stands above or below them.
How the values were obtained:
[1] = target: AQP4 I43A, C-terminal GFP fusion (UniProt P55087); assay: native gel or EMSA; BN-PAGE (8% bis-tris gel, pH 7.0, on ice) of whole-cell lysates of transfected HEK293 cells in 1% Triton X-100 BN lysis buffer, then immunoblot (anti-AQP4 or anti-GFP) and densitometry; self-association: tetramer, dimer, monomer bands
[2] = target: AQP4 TM1 compound mutant (I43A/I47A/L50A/L51A/I57A), C-terminal GFP fusion (UniProt P55087); assay: BN-PAGE and Western blotting, densitometry; conditions: Triton X-100-solubilized protein from HEK293 cells; 3 experimental repeats; read off a plot
Target sequence in this assay (P55087 whole entry I47A/L50A/L51A/I57A, stated change not applied, the tested form may be a part): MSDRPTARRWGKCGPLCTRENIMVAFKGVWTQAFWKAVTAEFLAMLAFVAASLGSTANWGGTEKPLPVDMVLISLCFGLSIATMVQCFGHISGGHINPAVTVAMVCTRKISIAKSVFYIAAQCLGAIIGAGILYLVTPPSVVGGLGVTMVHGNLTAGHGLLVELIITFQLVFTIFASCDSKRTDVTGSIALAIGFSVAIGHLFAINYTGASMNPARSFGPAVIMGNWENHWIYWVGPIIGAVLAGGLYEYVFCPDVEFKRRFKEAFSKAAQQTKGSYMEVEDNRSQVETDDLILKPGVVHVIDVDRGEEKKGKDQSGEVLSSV

[3] = target: wild-type human AQP1 (human) (UniProt P29972); assay: native gel or EMSA; BN-PAGE (8% bis-tris gel, pH 7.0, on ice) of whole-cell lysates of transfected HEK293 cells in 1% Triton X-100 BN lysis buffer, then immunoblot (anti-AQP4 or anti-GFP) and densitometry; self-association: tetramer, dimer, monomer bands
[4] = target: AQP4 TM1 compound mutant (I43A/I47A/L50A/L51A/I57A), C-terminal GFP fusion (UniProt P55087); assay: as above
[5] = target: AQP4 I43A, C-terminal GFP fusion (UniProt P55087); assay: BN-PAGE and Western blotting, densitometry; conditions: Triton X-100-solubilized protein from HEK293 cells; 3 experimental repeats; read off a plot
Target sequence in this assay (P55087 whole entry, stated change not applied, the tested form may be a part): as the sequence (P55087 whole entry I47A/L50A/L51A/I57A, stated change not applied, the tested form may be a part) above, with A47I, A50L, A51L, A57I counted along it

[6] = target: the molecule itself; assay: native gel or EMSA; BN-PAGE (8% bis-tris gel, pH 7.0, on ice) of whole-cell lysates of transfected HEK293 cells in 1% Triton X-100 BN lysis buffer, then immunoblot (anti-AQP4 or anti-GFP) and densitometry; self-association: tetramer, dimer, monomer bands

stoichiometry N [1]: 4
Molecule: AQP4 I43A, C-terminal GFP fusion (from UniProt P55087 1-323) (natural protein)

other: % tetrameric protein [2]: 100%
Molecule: wild-type human AQP4, C-terminal GFP fusion (from UniProt P55087) I43A; I47A; L50A; L51A; I57A

stoichiometry N [3]: 4
Molecule: wild-type human AQP1 (from UniProt P29972 1-269) (natural protein)

stoichiometry N [4]: 4
Molecule: AQP4 TM1 compound mutant (I43A/I47A/L50A/L51A/I57A), C-terminal GFP fusion (from UniProt P55087 1-323) (natural protein)

other: % tetrameric protein [5]: 100%
Molecule: wild-type human AQP4, C-terminal GFP fusion (from UniProt P55087) I43A

B1: AQP3 P181S/Y182K/N183R (natural protein, human, UniProt Q92482 1-292, looked up)
chain: MGRQKELVSRCGEMLHIRYRLLRQALAECLGTLILVMFGCGSVAQVVLSRGTHGGFLTINLAFGFAVTLGILIAGQVSGAHLNPAVTFAMCFLAREPWIKLPIYTLAQTLGAFLGAGIVFGLYYDAIWHFADNQLFVSGPNGTAGIFATYPSGHLDMINGFFDQFIGTASLIVCVLAIVDSKRNPVPRGLEAFTVGLVVLVIGTSMGFNSGYAVNPARDFGPRLFTALAGWGSAVFTTGQHWWWVPIVSPLLGSIAGVFVYQLMIGCHLEQPPPSNEEENVKLAHVKHKEQI
notes: aquaporin-3 (AQP3), human; DPYNN changed to DSKRN; The construct and its tag are not described; a GFP tag is surmised; also called AQP3 DSKRN mutant; source: HEK293, transfected, extracted with Triton X-100
stoichiometry N [6]: 2

B2: AQP3 P181E/Y182K/N183R (natural protein, human, UniProt Q92482 1-292, looked up)
chain: MGRQKELVSRCGEMLHIRYRLLRQALAECLGTLILVMFGCGSVAQVVLSRGTHGGFLTINLAFGFAVTLGILIAGQVSGAHLNPAVTFAMCFLAREPWIKLPIYTLAQTLGAFLGAGIVFGLYYDAIWHFADNQLFVSGPNGTAGIFATYPSGHLDMINGFFDQFIGTASLIVCVLAIVDEKRNPVPRGLEAFTVGLVVLVIGTSMGFNSGYAVNPARDFGPRLFTALAGWGSAVFTTGQHWWWVPIVSPLLGSIAGVFVYQLMIGCHLEQPPPSNEEENVKLAHVKHKEQI
notes: aquaporin-3 (AQP3), human; DPYNN changed to DEKRN; The construct and its tag are not described; a GFP tag is surmised; also called AQP3 DEKRN mutant; source: HEK293, transfected, extracted with Triton X-100
stoichiometry N [6]: 2

B3: wild-type AQP9 (natural protein, human, UniProt O43315 1-295, looked up)
chain: MQPEGAEKGKSFKQRLVLKSSLAKETLSEFLGTFILIVLGCGCVAQAILSRGRFGGVITINVGFSMAVAMAIYVAGGVSGGHINPAVSLAMCLFGRMKWFKLPFYVGAQFLGAFVGAATVFGIYYDGLMSFAGGKLLIVGENATAHIFATYPAPYLSLANAFADQVVATMILLIIVFAIFDSRNLGAPRGLEPIAIGLLIIVIASSLGLNSGCAMNPARDLSPRLFTALAGWGFEVFRAGNNFWWIPVVGPLVGAVIGGLIYVLVIEIHHPEPDSVFKTEQSEDKPEKYELSVIM
notes: aquaporin-9 (AQP9), human; The construct and its tag are not described; a GFP tag is surmised; source: HEK293, transfected, Triton X-100-extracted protein
stoichiometry N [6]: 4

B4: wild-type AQP10 (natural protein, human, UniProt Q96PS8 1-301, looked up)
chain: MVFTQAPAEIMGHLRIRSLLARQCLAEFLGVFVLMLLTQGAVAQAVTSGETKGNFFTMFLAGSLAVTIAIYVGGNVSGAHLNPAFSLAMCIVGRLPWVKLPIYILVQLLSAFCASGATYVLYHDALQNYTGGNLTVTGPKETASIFATYPAPYLSLNNGFLDQVLGTGMLIVGLLAILDRRNKGVPAGLEPVVVGMLILALGLSMGANCGIPLNPARDLGPRLFTYVAGWGPEVFSAGNGWWWVPVVAPLVGATVGTATYQLLVALHHPEGPEPAQDLVSAQHKASELETPASAQMLECKL
notes: aquaporin-10 (AQP10), human; The construct and its tag are not described; a GFP tag is surmised; source: HEK293, transfected, Triton X-100-extracted protein
stoichiometry N [6]: 4

Reference: publication PMC4807272, “Structural Determinants of Oligomerization of the Aquaporin-4 Channel*” (The Journal of Biological Chemistry, 2016)
